One data set deals with MacB (Escherichia coli, UniProt P75831). Put plainly: limited proteolysis protection. It counts as binding. The note with it: 1 mM Mg-AMPPNP, loaded on ice, proteolysis at 37°C.
The target of data set [1] is T1, MacB with C-terminal 6His tag, purified and reconstituted into proteoliposomes (E. coli, UniProt P75831 1-648).
T1 sequence: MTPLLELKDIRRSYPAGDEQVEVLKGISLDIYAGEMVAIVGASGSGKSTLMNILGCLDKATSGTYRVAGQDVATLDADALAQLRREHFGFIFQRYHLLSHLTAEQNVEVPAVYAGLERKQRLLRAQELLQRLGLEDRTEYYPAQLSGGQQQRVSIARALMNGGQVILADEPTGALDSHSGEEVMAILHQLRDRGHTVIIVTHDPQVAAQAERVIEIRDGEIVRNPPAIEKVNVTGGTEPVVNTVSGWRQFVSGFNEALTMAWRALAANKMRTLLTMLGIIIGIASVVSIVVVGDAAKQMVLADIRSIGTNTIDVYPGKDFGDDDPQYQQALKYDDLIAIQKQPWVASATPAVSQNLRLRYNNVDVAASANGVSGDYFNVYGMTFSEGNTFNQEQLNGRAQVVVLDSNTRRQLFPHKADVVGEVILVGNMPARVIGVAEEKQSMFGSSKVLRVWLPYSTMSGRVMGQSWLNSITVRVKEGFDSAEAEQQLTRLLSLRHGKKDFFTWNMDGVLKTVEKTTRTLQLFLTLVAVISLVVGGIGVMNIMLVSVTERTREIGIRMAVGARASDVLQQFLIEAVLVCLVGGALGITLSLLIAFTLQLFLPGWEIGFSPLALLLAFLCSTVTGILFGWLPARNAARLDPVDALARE
Put plainly: limited proteolysis of proteoliposomes.

The data set “cross-linking” concerns the molecule itself. As to the kind of experiment: cross-linking.

Where a chain is given by its changes, count along the chain named. In names and notes the source's numbering stands.

The values below come from article PMC3177148 (Molecular microbiology, 2011).

As to `Nc1ncnc2c1ncn2[C@@H]1O[C@H](COP(=O)(O)OP(=O)(O)NP(=O)(O)O)[C@@H](O)[C@H]1O` [AMPPNP], the “limited proteolysis protection (proteinase K) in proteoliposomes, anti-MacB immu” value on MacB was “MacB alone binds ATP and AMPPNP”.

B1: MacA wild type with C-terminal 6His tag, purified (natural protein)
chain: MKKRKTVKKRYVIALVIVIAGLITLWRILNAPVPTYQTLIVRPGDLQQSVLATGKLDALRKVDVGAQVSGQLKTLSVAIGDKVKKDQLLGVIDPEQAENQIKEVEATLMELRAQRQQAEAELKLARVTYSRQQRLAQTKAVSQQDLDTAATEMAVKQAQIGTIDAQIKRNQASLDTAKTNLDYTRIVAPMAGEVTQITTLQGQTVIAAQQAPNILTLADMSAMLVKAQVSEADVIHLKPGQKAWFTVLGDPLTRYEGQIKDVLPTPEKVNDAIFYYARFEVPNPNGLLRLDMTAQVHIQLTDVKNVLTIPLSALGDPVGDNRYKVKLLRNGETREREVTIGARNDTDVEIVKGLEAGDEVVIGEAKPGAAQ
For the molecule B1, the binding result (in data set [1]; in the data set “cross-linking”) was “binds” each time.

B2: MacA G357A with C-terminal 6His tag, purified (natural protein)
chain: B1 chain with G357A
As to B2, the binding result in “cross-linking” is “binds”.

B3: MacA G353A with C-terminal 6His tag, purified (natural protein)
chain: B1 chain with G353A
With B3, in “cross-linking”, the binding result is “binds”.
